Test results from the supplement of paper PMC7877785.
± gives the uncertainty stated by the source.

Test: self-splicing fitness, log relative to wild type (ln ratio); higher = more splicing; Tetrahymena group I intron in knt gene, E. coli kanamycin selection, DiMSum; sequences stand for … in CUCUCU…GGAGGGAAAAGUUAUCAGGCAUGCACCUGGUAGCUAGUCUUUAAACCAAUAGAUUGCAUCGGUUUAAAAGGCAAGACCGUCAAAUUGCGGGAAAGGGGUCAACAGCCGUUCAGUACCAAGUCUCAGGGGAAACUUUGAGAUGGCCUUGCAAAGGGUAUGGUAAUAAGCUGACGGACAUGGUCCUAACCACGCAGCCAAGUCCUAAGUCAACAGAUCUUCUGUUGAUAUGGAUGCAGUUCACAGACUAAAUGUCGGUCGGGGAAGAUGUAUUCUUCUCAUAAGAUAUAGUCGGACCUCUCCUUAAUGGGAGCUAGCGGAUGAAGUGAUGCAACACUGGAGCCGCUGGGAACUAAUUUGUAUGCGAAAGUAUAUUGAUUAGUUUUGGAGUACUCGUGGUCG
Method in brief: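 A randomised library covering all eight P1ex-region intron nucleotides was built with the intron in the knt kanamycin-resistance gene on pET-22b(+) and held in E. coli BL21(DE3). Cells were grown overnight at 37°C or 30°C on LB agar, with or without 25 μg/mL kanamycin, plus 100 μg/mL carbenicillin, 50 μM IPTG and 0.2% rhamnose, and pooled colonies were amplicon-sequenced on an Illumina HiSeq 2500. DiMSum fitness is the error-weighted combination of wild-type-normalised replicate fold changes, kanamycin versus none.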

Sequence	self-splicing fitness (ln) (37 °C)	self-splicing fitness (ln) (30 °C)
UGCGAGCAAUAUUACGUCAA	-0.906 ± 0.35	
UACAAGCAAUAUUACGAGCG	-0.0756 ± 0.099	-0.155 ± 0.074
GAGUAGCAAUAUUACGCGAA	-0.658 ± 0.37	
CAGGAGCAAUAUUACGAUCG	0.258 ± 0.1	-0.865 ± 0.08
GCUGAGCAAUAUUACGAGGU	-1.74 ± 0.22	-3.72 ± 0.29
GCCUAGCAAUAUUACGGUGG	-2.86 ± 0.22	-4.34 ± 0.27
ACGCAGCAAUAUUACGACAC	-0.767 ± 0.16	-1.83 ± 0.13
ACCGAGCAAUAUUACGACAC	-1.73 ± 0.26	-3.48 ± 0.38
UAGUAGCAAUAUUACGUCUA	0.659 ± 0.1	0.265 ± 0.095
CCAGAGCAAUAUUACGAGCA	-2.32 ± 0.19	-5.29 ± 0.41
UGUCAGCAAUAUUACGCGGU	-2.2 ± 0.29	-3.09 ± 0.26
CUAGAGCAAUAUUACGGAUG	0.311 ± 0.11	-0.4 ± 0.095
AUUGAGCAAUAUUACGGUGU	-2.31 ± 0.37	-1.92 ± 0.15
GGGUAGCAAUAUUACGCAUC	-2.48 ± 0.24	-2.34 ± 0.29
UGUGAGCAAUAUUACGUCUC		-1.96 ± 0.25
AGAAAGCAAUAUUACGCAGC	-2.33 ± 0.2	-2.92 ± 0.2
CGGAAGCAAUAUUACGGUCG	-0.978 ± 0.12	-1.55 ± 0.099
GUUUAGCAAUAUUACGAUAG	-1.88 ± 0.31	-3.5 ± 0.32
GUUGAGCAAUAUUACGCCCA	-1.74 ± 0.38	-1.93 ± 0.45
GACAAGCAAUAUUACGUAUA	-1.79 ± 0.13	-1.76 ± 0.15
GUAGAGCAAUAUUACGAAGG		-1.87 ± 0.31
CGGGAGCAAUAUUACGUUGG	-2.52 ± 0.2	-3.83 ± 0.22
CCCGAGCAAUAUUACGCCAG		-2.69 ± 0.38
UAUAAGCAAUAUUACGGGCG	0.339 ± 0.17	-0.413 ± 0.14
CGCAAGCAAUAUUACGAAGA	-1.73 ± 0.17	-2.75 ± 0.21

Sequence	self-splicing fitness (ln) (37 °C)	self-splicing fitness (ln) (30 °C)
AUAGAGCAAUAUUACGCGCA	-0.253 ± 0.17	-0.749 ± 0.14
AAGCAGCAAUAUUACGCUGG	-1.72 ± 0.15	-3.27 ± 0.21
CGGAAGCAAUAUUACGUGAA	-1.66 ± 0.15	-3.4 ± 0.17
UGCCAGCAAUAUUACGAUGC	-2.35 ± 0.21	-3.57 ± 0.17
CGCUAGCAAUAUUACGCCAU	-1.27 ± 0.27	-3.62 ± 0.3
UUAUAGCAAUAUUACGCGUC	-1.11 ± 0.41	
AACCAGCAAUAUUACGCUUA	-0.0597 ± 0.055	-0.415 ± 0.046
UACGAGCAAUAUUACGCAGU	-2.95 ± 0.33	-3.15 ± 0.26
UGAAAGCAAUAUUACGAGAU	-2.18 ± 0.19	-2.93 ± 0.14
AUCGAGCAAUAUUACGCGGC	-3.13 ± 0.47	-2.86 ± 0.5
CGAGAGCAAUAUUACGCUGC	-2.48 ± 0.37	-2.93 ± 0.36
AGAAAGCAAUAUUACGAUCG	-0.026 ± 0.091	-0.0642 ± 0.072
UCUUAGCAAUAUUACGAUGU	-0.623 ± 0.13	-1.95 ± 0.11
AGAAAGCAAUAUUACGGUUA	-0.679 ± 0.083	-0.628 ± 0.1
UCCGAGCAAUAUUACGCCCA	-2.83 ± 0.35	-4.21 ± 0.36
GGUUAGCAAUAUUACGAGCA	-0.264 ± 0.1	-0.943 ± 0.1
CAGGAGCAAUAUUACGCCAU	-1.55 ± 0.41	-2.73 ± 0.33
GCGGAGCAAUAUUACGAUCG	-1.12 ± 0.3	-0.357 ± 0.25
UAGAAGCAAUAUUACGGCCG	-0.0885 ± 0.11	0.101 ± 0.083
GGAGAGCAAUAUUACGUGUU	-1.64 ± 0.31	-4.51 ± 0.37
UGAUAGCAAUAUUACGGCUA	0.0243 ± 0.14	-0.455 ± 0.14
AGAGAGCAAUAUUACGGGUU	-2.08 ± 0.23	-4.74 ± 0.46
UCGCAGCAAUAUUACGGCUC	-2.96 ± 0.35	-3.21 ± 0.17
CUCCAGCAAUAUUACGAACG	-0.22 ± 0.15	-1.6 ± 0.15
AUAAAGCAAUAUUACGGUCC	-0.458 ± 0.17	-0.883 ± 0.14

Sequence	self-splicing fitness (ln) (37 °C)	self-splicing fitness (ln) (30 °C)
CUAUAGCAAUAUUACGUUAU	-2.38 ± 0.32	-3.27 ± 0.21
AUCGAGCAAUAUUACGAGUU	-1.31 ± 0.18	-2.66 ± 0.23
AAUGAGCAAUAUUACGUACC	-2.85 ± 0.27	
CUUAAGCAAUAUUACGAGAA	-2.91 ± 0.47	-2.01 ± 0.34
UCCUAGCAAUAUUACGUAAG	-2.4 ± 0.23	-3.31 ± 0.24
UAUCAGCAAUAUUACGGACC	-1.39 ± 0.15	-2.13 ± 0.13
UGGUAGCAAUAUUACGCCUA	0.464 ± 0.12	0.144 ± 0.11
AGUGAGCAAUAUUACGGCGG	-2.29 ± 0.26	-1.83 ± 0.31
CGCCAGCAAUAUUACGAGAG	-1.37 ± 0.098	-3.58 ± 0.13
UACAAGCAAUAUUACGGGUC	-2.78 ± 0.16	-3.32 ± 0.16
GAGGAGCAAUAUUACGGCGA	-0.687 ± 0.2	-1.1 ± 0.23
GACCAGCAAUAUUACGUGCU	-2.63 ± 0.21	-2.85 ± 0.12
GAGUAGCAAUAUUACGGCAA	-0.547 ± 0.18	-1.84 ± 0.17
CCAUAGCAAUAUUACGGCUU	-2.19 ± 0.2	-3.97 ± 0.31
GGGGAGCAAUAUUACGCAGA	-2.07 ± 0.47	
AGUUAGCAAUAUUACGGGAG	-1.65 ± 0.22	-4.34 ± 0.39
CCAGAGCAAUAUUACGUCAG	-1.6 ± 0.15	-2.58 ± 0.12
AUCAAGCAAUAUUACGGACG	0.117 ± 0.11	-0.832 ± 0.083
ACGGAGCAAUAUUACGUCCC	-0.893 ± 0.2	-1.47 ± 0.25
UUUAAGCAAUAUUACGCUCU	-0.539 ± 0.11	-1.26 ± 0.098
AGCAAGCAAUAUUACGGAAA	-1.03 ± 0.11	-3.46 ± 0.18
CGACAGCAAUAUUACGUCGC	-3.74 ± 0.33	-3.71 ± 0.25
UUCGAGCAAUAUUACGAACU	-0.827 ± 0.44	-3.28 ± 0.32
CCUGAGCAAUAUUACGGCCG	-2.21 ± 0.4	
GGAGAGCAAUAUUACGGUUA		-3.19 ± 0.38

Sequence	self-splicing fitness (ln) (37 °C)	self-splicing fitness (ln) (30 °C)
CGAGAGCAAUAUUACGACGG	-0.616 ± 0.18	-0.704 ± 0.16
UUUGAGCAAUAUUACGCCUG	-1.21 ± 0.38	-2.85 ± 0.27
AAGCAGCAAUAUUACGCUCC	-0.511 ± 0.2	-1.82 ± 0.16
GCAAAGCAAUAUUACGGAAA	-1.66 ± 0.19	-1.88 ± 0.18
UUUCAGCAAUAUUACGCGCA	0.569 ± 0.12	-0.226 ± 0.11
CGAAAGCAAUAUUACGUUGG	-0.961 ± 0.097	-1.66 ± 0.08
AAAAAGCAAUAUUACGGGCC	-1.17 ± 0.22	-1.8 ± 0.28
AAAUAGCAAUAUUACGCACU	-0.381 ± 0.13	0.478 ± 0.12
ACUUAGCAAUAUUACGGCGA	-0.343 ± 0.21	-1.21 ± 0.21
GUUGAGCAAUAUUACGAAGA	-2.71 ± 0.48	
CAGAAGCAAUAUUACGGAUC	-2.62 ± 0.17	-1.26 ± 0.11
CGGUAGCAAUAUUACGUGUU	-3.09 ± 0.27	-4.12 ± 0.28
CGAUAGCAAUAUUACGGCUC	-1.15 ± 0.17	-2.44 ± 0.14
ACAGAGCAAUAUUACGCCGA	-2.76 ± 0.38	-2.95 ± 0.48
GUGCAGCAAUAUUACGGUUU	-0.000827 ± 0.076	-0.309 ± 0.062
CCUUAGCAAUAUUACGCGCU	-3.41 ± 0.42	-3.13 ± 0.32
GGAUAGCAAUAUUACGCUUA	-0.532 ± 0.15	-1.88 ± 0.18
CGGAAGCAAUAUUACGUCGG	0.0281 ± 0.099	-0.77 ± 0.064
AUCUAGCAAUAUUACGAUUU	0.317 ± 0.11	-0.629 ± 0.084
CCAUAGCAAUAUUACGCCAA	-1.58 ± 0.25	-2.76 ± 0.43
UCUAAGCAAUAUUACGUCGA	0.0723 ± 0.11	-0.33 ± 0.088
GCCAAGCAAUAUUACGACCG	-2.01 ± 0.12	-3.81 ± 0.22
GGAAAGCAAUAUUACGUAAA	-0.563 ± 0.11	-1.94 ± 0.1
GAAGAGCAAUAUUACGGCAA	-2.36 ± 0.49	
